± gives the standard error.
B1: library; numbered along this chain (parent)
chain: MATDAALRRLLRLHRTEIAVAVDSAFPLLHALADHDVVPEDKFQETLHLKEKEGCPQAFHALLSWLLTQDSTAILDFWRVLFKDYNLERYGRLQPILDSFPKDVDLSQPRKGRKPPAVPKALVPPPRLPTKRKASEEARAAAPAALTPRGTASPGSQLKAKPPKKPESSAEQQRLPLGNGIQTMSASVQRAVAMSSGDVPGARGAVEGILIQQVFESGGSKKCIQVGGEFYTPSKFEDSGSGKNKARSSSGPKPLVRAKGAQGAAPGGGEARLGQQGSVPAPLALPSDPQLHQKNEDECAVCRDGGELICCDGCPRAFHLACLSPPLREIPSGTWRCSSCLQATVQEVQPRAEEPRPQEPPVETPLPPGLRSAGEEVRGPPGEPLAGMDTTLVYKHLPAPPSAAPLPGLDSSALHPLLCVGPEGQQNLAPGARCGVCGDGTDVLRCTHCAAAFHWRCHFPAGTSRPGTGLRCRSCSGDVTPAPVEGVLAPSPARLAPGPAKDDTASHEPALHRDDLESLLSEHTFDGILQWAIQSMARPAAPFPS

Variants of: B1
Assay: AIRE transcriptional activation functional score (insulin promoter-GFP; nonsense median 0, synonymous median 1) (normalised score); higher = higher AIRE activity (more reporter activation)
Details: with insulin promoter-GFP reporter in HEK293
Experimental: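 Deep mutational scan of full-length human AIRE (codon-optimized cDNA, DT-POPCode NNN libraries over three regions) integrated at a Bxb1 landing pad in HEK293 cells carrying an insulin core promoter-GFP reporter at a Flp-In site. Cells were sorted for the top 10% GFP about 14 days after transfection. Variant frequency log-ratios (select vs non-select, TileSeq) were rescaled so that the nonsense median is 0 and the synonymous median is 1, then averaged over biological replicates.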

In order of falling “AIRE transcriptional activation functional score” value:
1. Q173M  2.11 ± 0.16
2. G228T  1.57 ± 0.23
3. V22I  1.57 ± 0.55
4. N179V  1.49 ± 0.36
5. A386W  1.47 ± 0.048
6. A541C  1.43 ± 0.09
7. A500W  1.42 ± 0.033
8. S156C  1.38 ± 0.2
9. P154L  1.36 ± 0.46
10. P116C  1.36 ± 0.37
11. G219I  1.35 ± 0.14
12. G408W  1.34 ± 0.043
13. A321I  1.33 ± 0.21
14. A281Y  1.32 ± 0.046
15. L370S  1.32 ± 0.2
16. P148T  1.29 ± 0.8
17. A145G  1.29 ± 0.35
18. Q157C  1.27 ± 0.41
19. Q157E  1.26 ± 0.53
20. S338H  1.25 ± 0.079
21. Q57A  1.25 ± 0.88
22. D389S  1.24 ± 0.1
23. A510C  1.24 ± 0.065
24. P125L  1.24 ± 0.24
25. Q213Y  1.23 ± 0.2
26. P407V  1.23 ± 0.21
27. A145F  1.23 ± 0.21
28. D312Q  1.17 ± 0.16
29. A489D  1.17 ± 0.2
30. G435A  1.16 ± 0.3
31. E307K  1.16 ± 0.32
32. T147I  1.16 ± 0.47
33. Q213H  1.15 ± 0.16
34. E136H  1.15 ± 0.23
35. K161L  1.14 ± 0.52
36. Q276T  1.14 ± 0.16
37. D238L  1.13 ± 0.16
38. P116W  1.13 ± 0.19
39. L370C  1.12 ± 0.091
40. P361I  1.09 ± 0.13
41. P315D  1.08 ± 0.14
42. V192M  1.08 ± 0.062
43. V348N  1.08 ± 0.14
44. L417Q  1.07 ± 0.16
45. S372P  1.07 ± 0.29
46. S402A  1.05 ± 0.24
47. P315Q  1.05 ± 0.23
48. E171N  1.05 ± 0.48
49. L417N  1.05 ± 0.17
50. Q349E  1.04 ± 0.12
51. P497F  1.03 ± 0.11
52. Q275L  1.03 ± 0.14
53. K114L  1.03 ± 0.43
54. Q293G  1 ± 0.49
55. L418G  1 ± 0.18
56. G527N  0.999 ± 0.075
57. P254S  0.995 ± 0.39
58. Q349A  0.994 ± 0.27
59. A281S  0.99 ± 0.19
60. L285V  0.989 ± 0.16
61. G268N  0.988 ± 0.29
62. L470K  0.988 ± 0.22
63. S402L  0.984 ± 0.3
64. P361E  0.976 ± 0.18
65. P125F  0.97 ± 0.082
66. R356W  0.964 ± 0.017
67. A343E  0.95 ± 0.23
68. E354A  0.949 ± 0.19
69. T468S  0.945 ± 0.19
70. G462A  0.924 ± 0.07
71. G408R  0.906 ± 0.26
72. L529V  0.905 ± 0.14
73. G228P  0.904 ± 0.33
74. G462W  0.899 ± 0.042
75. K161H  0.866 ± 0.53
76. G379C  0.863 ± 0.31
77. V118S  0.863 ± 0.49
78. Q157N  0.858 ± 0.49
79. D103H  0.857 ± 0.87
80. G268D  0.854 ± 0.21
81. A510Q  0.851 ± 1.1
82. A321R  0.843 ± 0.14
83. A281P  0.84 ± 0.2
84. V279T  0.815 ± 0.12
85. V226G  0.814 ± 0.2
86. P492Q  0.812 ± 0.47
87. T68S  0.804 ± 0.35
88. Y85I  0.794 ± 0.18
89. T68C  0.77 ± 0.18
90. R127K  0.758 ± 0.21
91. Y85F  0.722 ± 0.33
92. P401T  0.717 ± 0.33
93. Q44A  0.712 ± 0.51
94. L417V  0.708 ± 0.25
95. V256N  0.685 ± 0.49
96. Q290E  0.67 ± 0.12
97. G54M  0.663 ± 0.19
98. P401V  0.635 ± 0.58
99. G219F  0.625 ± 0.088
100. Q157R  0.62 ± 0.58
101. H415C  0.616 ± 0.035
102. A265W  0.598 ± 0.075
103. Y394R  0.595 ± 0.12
104. D103N  0.59 ± 0.45
105. L210A  0.581 ± 0.49
106. H512K  0.572 ± 0.14
107. F459P  0.572 ± 0.056
108. H396T  0.549 ± 0.24
109. P143R  0.548 ± 0.3
110. M194K  0.544 ± 0.15
111. Y231P  0.54 ± 0.36
112. R9D  0.539 ± 0.48
113. E136N  0.529 ± 0.18
114. A452K  0.517 ± 0.12
115. L418E  0.507 ± 0.12
116. G178E  0.493 ± 0.29
117. S185F  0.468 ± 0.24
118. H512M  0.439 ± 0.028
119. F26T  0.422 ± 0.98
120. N179D  0.42 ± 0.23
121. H448V  0.416 ± 0.19
122. D103Q  0.412 ± 0.12
123. G178A  0.405 ± 0.5
124. I330E  0.403 ± 0.19
125. E307L  0.372 ± 0.31
126. L519V  0.315 ± 0.23
127. I533L  0.274 ± 0.55
128. I96F  0.253 ± 0.16
129. S169E  0.245 ± 0.73
130. H458F  0.227 ± 0.083
131. D312M  0.226 ± 0.14
132. K52Y  0.198 ± 0.39
133. V20P  0.184 ± 0.63
134. Y90D  0.18 ± 0.13
135. V22H  0.157 ± 0.049
136. N86P  0.153 ± 0.6
137. H35P  0.148 ± 0.28
138. W78L  0.134 ± 0.35
139. P539I  0.0871 ± 0.21
140. D36I  0.0675 ± 0.45
141. P115D  0.0469 ± 0.41
142. T16V  0.0381 ± 0.39
143. A160P  -0.0016 ± 0.82
144. H60S  -0.00297 ± 0.25
145. L11T  -0.0406 ± 0.65
146. V279D  -0.0439 ± 0.22
147. C446T  -0.0482 ± 0.24
148. Q57N  -0.0973 ± 0.88
149. K52P  -0.13 ± 0.73
150. Q69H  -0.135 ± 0.25
151. K50F  -0.139 ± 0.12
152. R92L  -0.166 ± 0.38
153. K83V  -0.175 ± 0.24
154. T3E  -0.211 ± 0.065
155. L11H  -0.271 ± 0.11
156. M194D  -0.299 ± 0.48
157. H35Q  -0.305 ± 0.25
158. I96W  -0.358 ± 0.16
159. Q44E  -0.441 ± 0.47
160. D70Y  -0.642 ± 0.49
161. A21D  -0.73 ± 0.38
162. L62F  -0.766 ± 0.19
163. L529Q  -0.832 ± 0.12
164. Q213W  -1.06 ± 0.29
165. F59Q  -1.19 ± 0.16
166. P39V  -1.34 ± 0.49
167. N179W  -2.31 ± 0.17
